Article PMC7796288

Molecular target: Pomacea bridgesii metallothionein 2 (PbrMT2), recombinant Cd(II)-loaded preparation (Pomacea bridgesii)
Assay: native MS; ESI-TOF MS at neutral pH (7.0), running buffer 5:95 acetonitrile:ammonium acetate (15 mM); Cd-PbrMT2 production from a CdCl2-supplemented culture; dimeric species seen together with monomeric Cd8- and Cd9- species

“Pomacea bridgesii metallothionein 2 (PbrMT2), recombinant Cd(II)-loaded preparation (natural protein)” showed a stoichiometry N of 2.
